Results published in US20100172907A1 (Hoffmann-La Roche, published 2010).
Groups on a side chain read outwards from the residue. No end group written: not given here. NSMP = not defined here

T1: BSA-conjugated Aβ heptapeptide VFFAEDC (C-terminal Cys coupled to NSMP-activated BSA)
T1 construct: also called Peptide 18-23
T1 peptide: VFFAEDC

T2: BSA-conjugated Aβ heptapeptide AEFRHDC (C-terminal Cys coupled to NSMP-activated BSA)
T2 construct: also called Peptide 2-7
T2 peptide: AEFRHDC

T3: BSA-conjugated Aβ heptapeptide LVFFAEC (reading uncertain; also: BSA conjugate)
T3 construct: also called Peptide 17-22
T3 peptide: LVFFAEC([NSMP-BSA])

T4: BSA-conjugated Aβ heptapeptide FFAEDVC (C-terminal Cys coupled to NSMP-activated BSA)
T4 construct: also called Peptide 19-24
T4 peptide: FFAEDVC


Key:
human Aβ (1-40) peptide [1] = target: T5, human Aβ (1-40) peptide (human); test: SPR, kinetic fit, immobilized fibers;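 note: surface plasmon resonance on a Biacore chip bearing in vitro formed Aβ1-40 or Aβ1-42 fibers, KD taken as koff/kon by fitting time-resolved sensor responses, based on total Fab concentration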
T5 construct: also called Aβ1-40 fibers
Description: (§1) Biacore2000 and Biacore3000 instruments were used for these measurements. Aβ1-40 and Aβ1-42 fibers were generated in vitro by incubation of synthetic peptides at a concentration of 200 μg/ml in 10 mM Na-acetate buffer (pH 4.0) for three days at 37° C. […] For binders with slow kinetics KD values were calculated by curve fitting of the time-dependent sensor responses, i.e. from the ratio of koff/kₒₙ. Binders with fast kinetics were analyzed by fitting the concentration-dependent sensor responses at equilibrium (adsorption-isotherms). KD values were calculated from the Biacore sensograms based on the total Fab concentration as determined by a protein assay. […] Briefly, time-dependent protein binding to Aβ1-40 fibers immobilized on the Biacore chip was measured during the association phase under mass-limited conditions at different flow rates of the analyte solution.

Aβ (1-42) peptide [2] = target: T6, Aβ (1-42) peptide (human); test: SPR, kinetic fit, immobilized fibers;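 note: surface plasmon resonance on a Biacore chip bearing in vitro formed Aβ1-40 or Aβ1-42 fibers, KD taken as koff/kon by fitting time-resolved sensor responses, based on total Fab concentration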
T6 construct: also called Aβ1-42 fibers; Aβ4
Description: as §1

[3] = target: T1, BSA-conjugated Aβ heptapeptide VFFAEDC; test: ELISA
Description: (§2) 50 μl of NSMP activated BSA (6.7 mg/ml) was diluted with 50 μl of PBS, 0.1% sodium azide and 10 μl of peptide solution (1 mM in DMSO) was added. As negative control activated BSA was mock-treated without peptide addition. After 4 hrs at room temperature the reaction was stopped by addition of 10 μl of 10 mM Cystein. An aliquot of the conjugate reaction mixture was diluted 1:100 with 0.1M sodium bicarbonate buffer and immediately filled into the wells (100 μl) of ELISA plates (Nunc Immuno-Plate). After standing 16 hrs at 4° C. 100 μl blocking buffer (as above) was added to each well and incubated for another 30 minutes. The plates were washed with 2×300 μl/well TBST (as above) and filled with 100 μl antibody at 10 μg/ml or 2 μg/ml in blocking buffer. The plates were kept 16 hours at 4° C. and washed with 2×300 μl TBST. 100 μl/well HRP-conjugated anti-human Ig H+L (Pierce, dilution 1:1000 with blocking buffer) was added and incubated for 1 hour at ambient temperature. The plates were washed with 3×300 μl/well TBST. Colour development was started by addition of 100 μl tetra-methyl benzidine/hydrogen peroxide reagent.

[4] = target: T2, BSA-conjugated Aβ heptapeptide AEFRHDC; test: ELISA
Description: as §2

[5] = target: T3, BSA-conjugated Aβ heptapeptide LVFFAEC; test: ELISA
Description: as §2

[6] = target: T4, BSA-conjugated Aβ heptapeptide FFAEDVC; test: ELISA
Description: as §2

human Aβ (1-40) peptide [7] = target: T5, human Aβ (1-40) peptide; test: SPR, immobilized fibers;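 note: biacore SPR using in vitro grown Aβ1-40 or Aβ1-42 fibrils immobilized on the chip with Fab analytes, KD from koff/kon fits or equilibrium isotherms based on total Fab concentration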
Aβ (1-42) peptide [8] = target: T6, Aβ (1-42) peptide; test: SPR, immobilized fibers;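 note: biacore SPR using in vitro grown Aβ1-40 or Aβ1-42 fibrils immobilized on the chip with Fab analytes, KD from koff/kon fits or equilibrium isotherms based on total Fab concentration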
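Throughout, for OD ratio 17-22/BSA: ELISA of antibody at 10 or 2 µg/ml binding plate-coated BSA–peptide conjugates, detected with HRP anti-human Ig and TMB colour, mock-treated BSA without peptide as negative control.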
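Throughout, for OD ratio 18-23/BSA: ELISA of antibody at 10 or 2 µg/ml binding plate-coated BSA–peptide conjugates, detected with HRP anti-human Ig and TMB colour, mock-treated BSA without peptide as negative control.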
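Throughout, for OD ratio 2-7/BSA: ELISA of antibody at 10 or 2 µg/ml binding plate-coated BSA–peptide conjugates, detected with HRP anti-human Ig and TMB colour, mock-treated BSA without peptide as negative control.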
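Throughout, for Peptide-ratio 18-23/2-7: ELISA of antibody at 10 or 2 µg/ml binding plate-coated BSA–peptide conjugates, detected with HRP anti-human Ig and TMB colour, mock-treated BSA without peptide as negative control.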

Binder | Kd (human Aβ (1-40) peptide [1]) [nM] | Kd (Aβ (1-42) peptide [2]) [nM] | other results
MS-Roche #3.4H7×3.4L9 Fab (Fab, V domains shown, cross-cloned Fab) VH: QLVESGGGLVQPGGSLRLSCAASGFTFSSYAMSWVRQAPGKGLEWVSVISETGKNIYYADSVKGRFTISRDNSKNTLYLQMNSLRAEDTAVYYCARLTHYARYYRYFDVWGQGTLVTVSS VL: DIVLTQSPATLSLSPGERATLSCRASRRIHVYYLAWYQQKPGQAPRLLIYGASSRATGVPARFSGSGSGTDFTLTISSLEPEDFATYYCQQTYDYPPTFGQGTKVEIKR | 2.66 | 3.51 | –
MS-Roche #3.3H1×3.4L9 Fab (Fab, V domains shown, cross-cloned Fab) VH: QLVESGGGLVQPGGSLRLSCAASGFTFSSYAMSWVRQAPGKGLEWVSVISEKSRFIYYADSVKGRFTISRDNSKNTLYLQMNSLRAEDTAVYYCARLTHYARYYRYFDVWGQGTLVTVSS VL: DIVLTQSPATLSLSPGERATLSCRASRRIHVYYLAWYQQKPGQAPRLLIYGASSRATGVPARFSGSGSGTDFTLTISSLEPEDFATYYCQQTYDYPPTFGQGTKVEIKR | 2.16 | 2.97 | –
MS-Roche #3.4H1×3.4L9 Fab (Fab, V domains shown, cross-cloned Fab) VH: QLVESGGGLVQPGGSLRLSCAASGFTFSSYAMSWVRQAPGKGLEWVSAISETSIRKYYADSVKGRFTISRDNSKNTLYLQMNSLRAEDTAVYYCARLTHYARYYRYFDVWGQGTLVTVSS VL: DIVLTQSPATLSLSPGERATLSCRASRRIHVYYLAWYQQKPGQAPRLLIYGASSRATGVPARFSGSGSGTDFTLTISSLEPEDFATYYCQQTYDYPPTFGQGTKVEIKR | 0.25 | 0.5 | –
MS-Roche #3.4H3×3.4L7 Fab (Fab, V domains shown, cross-cloned Fab) VH: QLVESGGGLVQPGGSLRLSCAASGFTFSSYAMSWVRQAPGKGLEWVSVISQTGRKIYYADSVKGRFTISRDNSKNTLYLQMNSLRAEDTAVYYCARLTHYARYYRYFDVWGQGTLVTVSS VL: DIVLTQSPATLSLSPGERATLSCRASQRLGRLYLAWYQQKPGQAPRLLIYGASSRATGVPARFSGSGSGTDFTLTISSLEPEDFATYYCQQTYDYPPTFGQGTKVEIKR | 0.92 | 0.92 | –
MS-Roche #3.4H3×3.4L9 Fab (Fab, V domains shown, cross-cloned Fab) VH: QLVESGGGLVQPGGSLRLSCAASGFTFSSYAMSWVRQAPGKGLEWVSVISQTGRKIYYADSVKGRFTISRDNSKNTLYLQMNSLRAEDTAVYYCARLTHYARYYRYFDVWGQGTLVTVSS VL: DIVLTQSPATLSLSPGERATLSCRASRRIHVYYLAWYQQKPGQAPRLLIYGASSRATGVPARFSGSGSGTDFTLTISSLEPEDFATYYCQQTYDYPPTFGQGTKVEIKR | 1.05 | 0.93 | –
MS-Roche #3.4H7×3.4L7 Fab (Fab, V domains shown, cross-cloned Fab) VH: QLVESGGGLVQPGGSLRLSCAASGFTFSSYAMSWVRQAPGKGLEWVSVISETGKNIYYADSVKGRFTISRDNSKNTLYLQMNSLRAEDTAVYYCARLTHYARYYRYFDVWGQGTLVTVSS VL: DIVLTQSPATLSLSPGERATLSCRASQRLGRLYLAWYQQKPGQAPRLLIYGASSRATGVPARFSGSGSGTDFTLTISSLEPEDFATYYCQQTYDYPPTFGQGTKVEIKR | 1.19 | 1.23 | –
MS-Roche #3.6H5×3.6L1 Fab (Fab, V domains shown, cross-cloned Fab) VH: QLVESGGGLVQPGGSLRLSCAASGFTFSSYAMSWVRQAPGKGLEWVSAISESGKTKYYADSVKGRFTISRDNSKNTLYLQMNSLRAEDTAVYYCARLTHYARYYRYFDVWGQGTLVTVSS VL: DIVLTQSPATLSLSPGERATLSCRASQFIQRFYLAWYQQKPGQAPRLLIYGASSRATGVPARFSGSGSGTDFTLTISSLEPEDFAVYYCQQTYNYPPTFGQGTKVEIKR | 1.25 | 1.04 | –
MS-Roche #3.6H5×3.6L2 Fab (Fab, V domains shown, cross-cloned Fab; VH entry starts at QLVESGG) VH: QLVESGGGLVQPGGSLRLSCAASGFTFSSYAMSWVRQAPGKGLEWVSAISESGKTKYYADSVKGRFTISRDNSKNTLYLQMNSLRAEDTAVYYCARLTHYARYYRYFDVWGQGTLVTVSS VL: DIVLTQSPATLSLSPGERATLSCRASQFLSRYYLAWYQQKPGQAPRLLIYGASSRATGVPARFSGSGSGTDFTLTISSLEPEDFAVYYCQQTYNYPPTFGQGTKVEIKR | 1.26 | 0.84 | –
MS-Roche #7.11H1×7.2L1 Fab (Fab, V domains shown, cross-cloned Fab; VH entry starts at QLVESGG) VH: QLVESGGGLVQPGGSLRLSCAASGFTFSSYAMSWVRQAPGKGLEWVSGINAAGFRTYYADSVKGRFTISRDNSKNTLYLQMNSLRAEDTAVYYCARGKGNTHKPYGYVRYFDVWGQGTLVTVSS VL: DIVLTQSPATLSLSPGERATLSCRASQYVDRTYLAWYQQKPGQAPRLLIYGASSRATGVPARFSGSGSGTDFTLTISSLEPEDFATYYCQQIYSFPHTFGQGTKVEIKR | 1.75 | 1.39 | –
MS-Roche #7.2H2×7.2L1 Fab (Fab, V domains shown, cross-cloned Fab) VH: QLVESGGGLVQPGGSLRLSCAASGFTFSSYAMSWVRQAPGKGLEWVSAINGTGMKKYYADSVKGRFTISRDNSKNTLYLQMNSLRAEDTAVYYCARGKGNTHKPYGYVRYFDVWGQGTLVTVSS VL: DIVLTQSPATLSLSPGERATLSCRASQYVDRTYLAWYQQKPGQAPRLLIYGASSRATGVPARFSGSGSGTDFTLTISSLEPEDFATYYCQQIYSFPHTFGQGTKVEIKR | 1.29 | 1.43 | –
MS-Roche #7.4H2×7.2L1 Fab (Fab, V domains shown, cross-cloned Fab; VH entry starts at QLVESGG) VH: QLVESGGGLVQPGGSLRLSCAASGFTFSSYAMSWVRQAPGKGLEWVSAINYNGARIYYADSVKGRFTISRDNSKNTLYLQMNSLRAEDTAVYYCARGKGNTHKPYGYVRYFDVWGQGTLVTVSS VL: DIVLTQSPATLSLSPGERATLSCRASQYVDRTYLAWYQQKPGQAPRLLIYGASSRATGVPARFSGSGSGTDFTLTISSLEPEDFATYYCQQIYSFPHTFGQGTKVEIKR | 1.4 | 1.4 | –
MS-Roche #7.11H1×7.11L1 Fab (Fab, V domains shown, cross-cloned Fab; VH entry starts at QLVESGG) VH: QLVESGGGLVQPGGSLRLSCAASGFTFSSYAMSWVRQAPGKGLEWVSGINAAGFRTYYADSVKGRFTISRDNSKNTLYLQMNSLRAEDTAVYYCARGKGNTHKPYGYVRYFDVWGQGTLVTVSS VL: DIVLTQSPATLSLSPGERATLSCRASQRILRIYLAWYQQKPGQAPRLLIYGASSRATGVPARFSGSGSGTDFTLTISSLEPEDFATYYCQQVYSPPHTFGQGTKVEIKR | 0.41 | 0.47 | –
MS-Roche #7.11H2×7.2L1(L1) Fab (Fab, V domains shown) VH: QLVESGGGLVQPGGSLRLSCAASGFTFSSYAMSWVRQAPGKGLEWVSAINANGYKKYYADSVKGRFTISRDNSKNTLYLQMNSLRAEDTAVYYCARGKGNTHKPYGYVRYFDVWGQGTLVTVSS VL: DIVLTQSPATLSLSPGERATLSCRASQYVDRTYLAWYQQKPGQAPRLLIYGASSRATGVPARFSGSGSGTDFTLTISSLEPEDFATYYCQQIYSFPHTFGQGTKVEIKR | 1 | 0.6 | –
MS-Roche #3.4.H17 Fab (Fab, V domains shown) VH: QVQLVESGGGLVQPGGSLRLSCAASGFTFSSYAMSWVRQAPGKGLEWVSAISEFGQFIYYADSVKGRFTISRDNSKNTLYLQMNSLRAEDTAVYYCARLTHYARYYRYFDVWGQGTLVTVSS VL: not shown | – | – | OD ratio 18-23/BSA [3]: 12; Peptide-ratio 18-23/2-7 [3]: 0.43; OD ratio 2-7/BSA [4]: 28; OD ratio 17-22/BSA [5]: 5; Peptide-ratio 17-22/2-7 [5]: 0.18; OD ratio 19-24/BSA [6]: 11; Peptide-ratio 19-24/2-7 [6]: 0.39; Kd (human Aβ (1-40) peptide [7]): 2 nM; Kd (Aβ (1-42) peptide [8]): 4.3 nM
MS-Roche #7.4H2×7.12L2 Fab (Fab, V domains shown, cross-cloned Fab) VH: QLVESGGGLVQPGGSLRLSCAASGFTFSSYAMSWVRQAPGKGLEWVSAINYNGARIYYADSVKGRFTISRDNSKNTLYLQMNSLRAEDTAVYYCARGKGNTHKPYGYVRYFDVWGQGTLVTVSS VL: DIVLTQSPATLSLSPGERATLSCRASQRFFYKYLAWYQQKPGQAPRLLISGSSNRATGVPARFSGSGSGTDFTLTISSLEPEDFAVYYCLQLYNIPNTFGQGTKVEIKR | 1.4 | 1.8 | –
